B1: TBK1 I710N, untagged (natural protein, human, UniProt Q9UHD2 1-729, looked up)
chain: MQSTSNHLWLLSDILGQGATANVFRGRHKKTGDLFAIKVFNNISFLRPVDVQMREFEVLKKLNHKNIVKLFAIEEETTTRHKVLIMEFCPCGSLYTVLEEPSNAYGLPESEFLIVLRDVVGGMNHLRENGIVHRDIKPGNIMRVIGEDGQSVYKLTDFGAARELEDDEQFVSLYGTEEYLHPDMYERAVLRKDHQKKYGATVDLWSIGVTFYHAATGSLPFRPFEGPRRNKEVMYKIITGKPSGAISGVQKAENGPIDWSGDMPVSCSLSRGLQVLLTPVLANILEADQEKCWGFDQFFAETSDILHRMVIHVFSLQQMTAHKIYIHSYNTATIFHELVYKQTKIISSNQELIYEGRRLVLEPGRLAQHFPKTTEENPIFVVSREPLNTIGLIYEKISLPKVHPRYDLDGDASMAKAITGVVCYACRIASTLLLYQELMRKGIRWLIELIKDDYNETVHKKTEVVITLDFCIRNIEKTVKVYEKLMKINLEAAELGEISDIHTKLLRLSSSQGTIETSLQDIDSRLSPGGSLADAWAHQEGTHPKDRNVEKLQVLLNCMTEIYYQFKKDKAERRLAYNEEQIHKFDKQKLYYHATKAMTHFTDECVKKYEAFLNKSEEWIRKMLHLRKQLLSLTNQCFDIEEEVSKYQEYTNELQETLPQKMFTASSGIKHTMTPIYPSSNTLVEMTLGMKKLKEEMEGVVKELAENNHNLERFGSLTMDGGLRNVDCL
B2: TBK1 Q565P, untagged (natural protein, human, UniProt Q9UHD2 1-729, looked up)
chain: MQSTSNHLWLLSDILGQGATANVFRGRHKKTGDLFAIKVFNNISFLRPVDVQMREFEVLKKLNHKNIVKLFAIEEETTTRHKVLIMEFCPCGSLYTVLEEPSNAYGLPESEFLIVLRDVVGGMNHLRENGIVHRDIKPGNIMRVIGEDGQSVYKLTDFGAARELEDDEQFVSLYGTEEYLHPDMYERAVLRKDHQKKYGATVDLWSIGVTFYHAATGSLPFRPFEGPRRNKEVMYKIITGKPSGAISGVQKAENGPIDWSGDMPVSCSLSRGLQVLLTPVLANILEADQEKCWGFDQFFAETSDILHRMVIHVFSLQQMTAHKIYIHSYNTATIFHELVYKQTKIISSNQELIYEGRRLVLEPGRLAQHFPKTTEENPIFVVSREPLNTIGLIYEKISLPKVHPRYDLDGDASMAKAITGVVCYACRIASTLLLYQELMRKGIRWLIELIKDDYNETVHKKTEVVITLDFCIRNIEKTVKVYEKLMKINLEAAELGEISDIHTKLLRLSSSQGTIETSLQDIDSRLSPGGSLADAWAHQEGTHPKDRNVEKLQVLLNCMTEIYYPFKKDKAERRLAYNEEQIHKFDKQKLYYHATKAMTHFTDECVKKYEAFLNKSEEWIRKMLHLRKQLLSLTNQCFDIEEEVSKYQEYTNELQETLPQKMFTASSGIKHTMTPIYPSSNTLVEMTLGMKKLKEEMEGVVKELAENNHILERFGSLTMDGGLRNVDCL
B3: TBK1 R440Q, untagged (natural protein, human, UniProt Q9UHD2 1-729, looked up)
chain: MQSTSNHLWLLSDILGQGATANVFRGRHKKTGDLFAIKVFNNISFLRPVDVQMREFEVLKKLNHKNIVKLFAIEEETTTRHKVLIMEFCPCGSLYTVLEEPSNAYGLPESEFLIVLRDVVGGMNHLRENGIVHRDIKPGNIMRVIGEDGQSVYKLTDFGAARELEDDEQFVSLYGTEEYLHPDMYERAVLRKDHQKKYGATVDLWSIGVTFYHAATGSLPFRPFEGPRRNKEVMYKIITGKPSGAISGVQKAENGPIDWSGDMPVSCSLSRGLQVLLTPVLANILEADQEKCWGFDQFFAETSDILHRMVIHVFSLQQMTAHKIYIHSYNTATIFHELVYKQTKIISSNQELIYEGRRLVLEPGRLAQHFPKTTEENPIFVVSREPLNTIGLIYEKISLPKVHPRYDLDGDASMAKAITGVVCYACRIASTLLLYQELMQKGIRWLIELIKDDYNETVHKKTEVVITLDFCIRNIEKTVKVYEKLMKINLEAAELGEISDIHTKLLRLSSSQGTIETSLQDIDSRLSPGGSLADAWAHQEGTHPKDRNVEKLQVLLNCMTEIYYQFKKDKAERRLAYNEEQIHKFDKQKLYYHATKAMTHFTDECVKKYEAFLNKSEEWIRKMLHLRKQLLSLTNQCFDIEEEVSKYQEYTNELQETLPQKMFTASSGIKHTMTPIYPSSNTLVEMTLGMKKLKEEMEGVVKELAENNHILERFGSLTMDGGLRNVDCL
B4: TBK1 M559R, untagged (natural protein, human, UniProt Q9UHD2 1-729, looked up)
chain: MQSTSNHLWLLSDILGQGATANVFRGRHKKTGDLFAIKVFNNISFLRPVDVQMREFEVLKKLNHKNIVKLFAIEEETTTRHKVLIMEFCPCGSLYTVLEEPSNAYGLPESEFLIVLRDVVGGMNHLRENGIVHRDIKPGNIMRVIGEDGQSVYKLTDFGAARELEDDEQFVSLYGTEEYLHPDMYERAVLRKDHQKKYGATVDLWSIGVTFYHAATGSLPFRPFEGPRRNKEVMYKIITGKPSGAISGVQKAENGPIDWSGDMPVSCSLSRGLQVLLTPVLANILEADQEKCWGFDQFFAETSDILHRMVIHVFSLQQMTAHKIYIHSYNTATIFHELVYKQTKIISSNQELIYEGRRLVLEPGRLAQHFPKTTEENPIFVVSREPLNTIGLIYEKISLPKVHPRYDLDGDASMAKAITGVVCYACRIASTLLLYQELMRKGIRWLIELIKDDYNETVHKKTEVVITLDFCIRNIEKTVKVYEKLMKINLEAAELGEISDIHTKLLRLSSSQGTIETSLQDIDSRLSPGGSLADAWAHQEGTHPKDRNVEKLQVLLNCRTEIYYQFKKDKAERRLAYNEEQIHKFDKQKLYYHATKAMTHFTDECVKKYEAFLNKSEEWIRKMLHLRKQLLSLTNQCFDIEEEVSKYQEYTNELQETLPQKMFTASSGIKHTMTPIYPSSNTLVEMTLGMKKLKEEMEGVVKELAENNHILERFGSLTMDGGLRNVDCL
B5: TBK1 Q581H, untagged (natural protein, human, UniProt Q9UHD2 1-729, looked up)
chain: MQSTSNHLWLLSDILGQGATANVFRGRHKKTGDLFAIKVFNNISFLRPVDVQMREFEVLKKLNHKNIVKLFAIEEETTTRHKVLIMEFCPCGSLYTVLEEPSNAYGLPESEFLIVLRDVVGGMNHLRENGIVHRDIKPGNIMRVIGEDGQSVYKLTDFGAARELEDDEQFVSLYGTEEYLHPDMYERAVLRKDHQKKYGATVDLWSIGVTFYHAATGSLPFRPFEGPRRNKEVMYKIITGKPSGAISGVQKAENGPIDWSGDMPVSCSLSRGLQVLLTPVLANILEADQEKCWGFDQFFAETSDILHRMVIHVFSLQQMTAHKIYIHSYNTATIFHELVYKQTKIISSNQELIYEGRRLVLEPGRLAQHFPKTTEENPIFVVSREPLNTIGLIYEKISLPKVHPRYDLDGDASMAKAITGVVCYACRIASTLLLYQELMRKGIRWLIELIKDDYNETVHKKTEVVITLDFCIRNIEKTVKVYEKLMKINLEAAELGEISDIHTKLLRLSSSQGTIETSLQDIDSRLSPGGSLADAWAHQEGTHPKDRNVEKLQVLLNCMTEIYYQFKKDKAERRLAYNEEHIHKFDKQKLYYHATKAMTHFTDECVKKYEAFLNKSEEWIRKMLHLRKQLLSLTNQCFDIEEEVSKYQEYTNELQETLPQKMFTASSGIKHTMTPIYPSSNTLVEMTLGMKKLKEEMEGVVKELAENNHILERFGSLTMDGGLRNVDCL
B6: TBK1 R134H, untagged (natural protein, human, UniProt Q9UHD2 1-729, looked up)
chain: MQSTSNHLWLLSDILGQGATANVFRGRHKKTGDLFAIKVFNNISFLRPVDVQMREFEVLKKLNHKNIVKLFAIEEETTTRHKVLIMEFCPCGSLYTVLEEPSNAYGLPESEFLIVLRDVVGGMNHLRENGIVHHDIKPGNIMRVIGEDGQSVYKLTDFGAARELEDDEQFVSLYGTEEYLHPDMYERAVLRKDHQKKYGATVDLWSIGVTFYHAATGSLPFRPFEGPRRNKEVMYKIITGKPSGAISGVQKAENGPIDWSGDMPVSCSLSRGLQVLLTPVLANILEADQEKCWGFDQFFAETSDILHRMVIHVFSLQQMTAHKIYIHSYNTATIFHELVYKQTKIISSNQELIYEGRRLVLEPGRLAQHFPKTTEENPIFVVSREPLNTIGLIYEKISLPKVHPRYDLDGDASMAKAITGVVCYACRIASTLLLYQELMRKGIRWLIELIKDDYNETVHKKTEVVITLDFCIRNIEKTVKVYEKLMKINLEAAELGEISDIHTKLLRLSSSQGTIETSLQDIDSRLSPGGSLADAWAHQEGTHPKDRNVEKLQVLLNCMTEIYYQFKKDKAERRLAYNEEQIHKFDKQKLYYHATKAMTHFTDECVKKYEAFLNKSEEWIRKMLHLRKQLLSLTNQCFDIEEEVSKYQEYTNELQETLPQKMFTASSGIKHTMTPIYPSSNTLVEMTLGMKKLKEEMEGVVKELAENNHILERFGSLTMDGGLRNVDCL
B7: TBK1 L94S, untagged (natural protein, human, UniProt Q9UHD2 1-729, looked up)
chain: MQSTSNHLWLLSDILGQGATANVFRGRHKKTGDLFAIKVFNNISFLRPVDVQMREFEVLKKLNHKNIVKLFAIEEETTTRHKVLIMEFCPCGSSYTVLEEPSNAYGLPESEFLIVLRDVVGGMNHLRENGIVHRDIKPGNIMRVIGEDGQSVYKLTDFGAARELEDDEQFVSLYGTEEYLHPDMYERAVLRKDHQKKYGATVDLWSIGVTFYHAATGSLPFRPFEGPRRNKEVMYKIITGKPSGAISGVQKAENGPIDWSGDMPVSCSLSRGLQVLLTPVLANILEADQEKCWGFDQFFAETSDILHRMVIHVFSLQQMTAHKIYIHSYNTATIFHELVYKQTKIISSNQELIYEGRRLVLEPGRLAQHFPKTTEENPIFVVSREPLNTIGLIYEKISLPKVHPRYDLDGDASMAKAITGVVCYACRIASTLLLYQELMRKGIRWLIELIKDDYNETVHKKTEVVITLDFCIRNIEKTVKVYEKLMKINLEAAELGEISDIHTKLLRLSSSQGTIETSLQDIDSRLSPGGSLADAWAHQEGTHPKDRNVEKLQVLLNCMTEIYYQFKKDKAERRLAYNEEQIHKFDKQKLYYHATKAMTHFTDECVKKYEAFLNKSEEWIRKMLHLRKQLLSLTNQCFDIEEEVSKYQEYTNELQETLPQKMFTASSGIKHTMTPIYPSSNTLVEMTLGMKKLKEEMEGVVKELAENNHILERFGSLTMDGGLRNVDCL
B8: TBK1 R47H, untagged (natural protein, human, UniProt Q9UHD2 1-729, looked up)
chain: MQSTSNHLWLLSDILGQGATANVFRGRHKKTGDLFAIKVFNNISFLHPVDVQMREFEVLKKLNHKNIVKLFAIEEETTTRHKVLIMEFCPCGSLYTVLEEPSNAYGLPESEFLIVLRDVVGGMNHLRENGIVHRDIKPGNIMRVIGEDGQSVYKLTDFGAARELEDDEQFVSLYGTEEYLHPDMYERAVLRKDHQKKYGATVDLWSIGVTFYHAATGSLPFRPFEGPRRNKEVMYKIITGKPSGAISGVQKAENGPIDWSGDMPVSCSLSRGLQVLLTPVLANILEADQEKCWGFDQFFAETSDILHRMVIHVFSLQQMTAHKIYIHSYNTATIFHELVYKQTKIISSNQELIYEGRRLVLEPGRLAQHFPKTTEENPIFVVSREPLNTIGLIYEKISLPKVHPRYDLDGDASMAKAITGVVCYACRIASTLLLYQELMRKGIRWLIELIKDDYNETVHKKTEVVITLDFCIRNIEKTVKVYEKLMKINLEAAELGEISDIHTKLLRLSSSQGTIETSLQDIDSRLSPGGSLADAWAHQEGTHPKDRNVEKLQVLLNCMTEIYYQFKKDKAERRLAYNEEQIHKFDKQKLYYHATKAMTHFTDECVKKYEAFLNKSEEWIRKMLHLRKQLLSLTNQCFDIEEEVSKYQEYTNELQETLPQKMFTASSGIKHTMTPIYPSSNTLVEMTLGMKKLKEEMEGVVKELAENNHILERFGSLTMDGGLRNVDCL

target: optineurin, C-terminal myc-FLAG-tagged (UniProt Q96CV9 1-577); experiment: co-IP
Sequence (Q96CV9 whole entry): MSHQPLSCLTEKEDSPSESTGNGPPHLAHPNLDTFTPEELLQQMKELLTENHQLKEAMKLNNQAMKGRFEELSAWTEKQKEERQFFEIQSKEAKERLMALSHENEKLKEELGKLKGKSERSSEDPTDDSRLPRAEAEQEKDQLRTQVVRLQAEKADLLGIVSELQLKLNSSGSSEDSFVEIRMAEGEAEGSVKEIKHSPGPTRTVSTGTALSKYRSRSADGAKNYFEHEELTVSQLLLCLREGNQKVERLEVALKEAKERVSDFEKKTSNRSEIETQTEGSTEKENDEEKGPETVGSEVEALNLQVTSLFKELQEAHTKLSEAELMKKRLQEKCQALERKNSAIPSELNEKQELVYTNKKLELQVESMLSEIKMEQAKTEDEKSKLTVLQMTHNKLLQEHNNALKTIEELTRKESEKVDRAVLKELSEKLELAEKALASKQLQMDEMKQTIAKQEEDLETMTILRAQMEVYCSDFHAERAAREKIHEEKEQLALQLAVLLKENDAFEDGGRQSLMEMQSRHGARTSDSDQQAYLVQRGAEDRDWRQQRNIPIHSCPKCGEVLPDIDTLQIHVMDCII

| Binder | TBK1 bound to OPTN relative to wild type |
| --- | --- |
| B1 | 0.07 relative to TBK1 WT |
| B2 | 0.14 relative to TBK1 WT |
| B3 | 0.17 relative to TBK1 WT |
| B4 | 0.05 relative to TBK1 WT |
| B5 | 0.2 relative to TBK1 WT |
| B6 | 2.53 relative to TBK1 WT |
| B7 | 0.04 relative to TBK1 WT |
| B8 | 3.23 relative to TBK1 WT |
